The chains are these.
T1: FcγRIIb extracellular domain with C-terminal His tag (human, UniProt P31994 43-217)
T1 construct: extracellular domain; also called 2b; FcgRIIb
T1 sequence (looked up): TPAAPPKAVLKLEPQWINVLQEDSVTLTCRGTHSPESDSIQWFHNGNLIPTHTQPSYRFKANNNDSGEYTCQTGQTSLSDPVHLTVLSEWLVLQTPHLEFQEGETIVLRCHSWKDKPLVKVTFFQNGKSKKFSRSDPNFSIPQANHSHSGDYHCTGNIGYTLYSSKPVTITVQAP

T2: FcγRIIb (human, UniProt P31994 43-217)
T2 construct: extracellular domain; also called FcgRIIb; 2b
T2 sequence (looked up): T1 sequence (looked up)

B1: GpH7-A5/GpH7-B3 variant L234_04F/GpL16-k0 (antibody, human IgG1, kappa)
heavy 1: not shown
heavy 2: not shown
light: DIVMTQSPLSLPVTPGEPASISCQASESLVHSNRNTYLHWYLQKPGQSPQLLIYKVSNRFSGVPDRFSGSGSGTDFTLKISRVEAEDVGVYYCSQNTHVPPTFGQGTKVEIERTVAAPSVFIFPPSDEQLKSGTASVVCLLNNFYPREAKVQWKVDNALQSGNSQESVTEQDSKDSTYSLSSTLTLSKADYEKHKVYACEVTHQGLSSPVTKSFNRGEC
notes: also called He Ab
B2: GpH7-A5/GpH7-B3 variant A330_03V/GpL16-k0 (antibody, human IgG1, kappa)
heavy 1: not shown
heavy 2: not shown
light: B1 light
notes: also called He Ab
B3: GpH7-A5/GpH7-B3 variant A330_06M/GpL16-k0 (antibody, human IgG1, kappa)
heavy 1: not shown
heavy 2: not shown
light: B1 light
notes: also called He Ab
B4: GpH7-A5/GpH7-B3 variant A330_08L/GpL16-k0 (antibody, human IgG1, kappa)
heavy 1: not shown
heavy 2: not shown
light: B1 light
notes: also called He Ab
B5: GpH7-A5/GpH7-B3 variant A330_07I/GpL16-k0 (antibody, human IgG1, kappa)
heavy 1: not shown
heavy 2: not shown
light: B1 light
notes: also called He Ab
B6: GpH7-A5/GpH7-B3 variant A330_04F/GpL16-k0 (antibody, human IgG1, kappa)
heavy 1: not shown
heavy 2: not shown
light: B1 light
notes: also called He Ab
B7: GpH7-A5/GpH7-B3 variant A330_15Y/GpL16-k0 (antibody, human IgG1, kappa)
heavy 1: not shown
heavy 2: not shown
light: B1 light
notes: also called He Ab
B8: GpH7-A5/GpH7-B3 variant L328_19Q/GpL16-k0 (antibody, human IgG1, kappa)
heavy 1: not shown
heavy 2: not shown
light: B1 light
notes: mutation in the GpH7-B3 chain only; also called He Ab
B9: GpH7-A5/GpH7-B3 variant L328_04F/GpL16-k0 (antibody, human IgG1, kappa)
heavy 1: not shown
heavy 2: not shown
light: B1 light
notes: as for B8
B10: GpH7-A5/GpH7-B3 variant L328_13S/GpL16-k0 (antibody, human IgG1, kappa)
heavy 1: not shown
heavy 2: not shown
light: B1 light
notes: as for B8
B11: GpH7-A5/GpH7-B3 variant P331_04F/GpL16-k0 (antibody, human IgG1, kappa)
heavy 1: not shown
heavy 2: not shown
light: B1 light
notes: as for B8
B12: GpH7-A5/GpH7-B3 variant N325_04F/GpL16-k0 (antibody, human IgG1, kappa)
heavy 1: not shown
heavy 2: not shown
light: B1 light
notes: as for B8
B13: GpH7-A5/GpH7-B3 variant L328_20W/GpL16-k0 (antibody, human IgG1, kappa)
heavy 1: not shown
heavy 2: not shown
light: B1 light
notes: as for B8
B14: GpH7-A5/GpH7-B3 variant N325_08L/GpL16-k0 (antibody, human IgG1, kappa)
heavy 1: not shown
heavy 2: not shown
light: B1 light
notes: as for B8
B15: GpH7-A5/GpH7-B3 variant P331_15Y/GpL16-k0 (antibody, human IgG1, kappa)
heavy 1: not shown
heavy 2: not shown
light: B1 light
notes: as for B8
B16: GpH7-A5/GpH7-B3 variant L328_10E/GpL16-k0 (antibody, human IgG1, kappa)
heavy 1: not shown
heavy 2: not shown
light: B1 light
notes: as for B8
B17: GpH7-A5/GpH7-B3 variant P331_10E/GpL16-k0 (antibody, human IgG1, kappa)
heavy 1: not shown
heavy 2: not shown
light: B1 light
notes: as for B8
B18: GpH7-A5/GpH7-B3 variant N325_06M/GpL16-k0 (antibody, human IgG1, kappa)
heavy 1: not shown
heavy 2: not shown
light: B1 light
notes: as for B8
B19: GpH7-A5/GpH7-B3 variant N325_09D/GpL16-k0 (antibody, human IgG1, kappa)
heavy 1: not shown
heavy 2: not shown
light: B1 light
notes: as for B8

T3 sequence (P08637 17-208): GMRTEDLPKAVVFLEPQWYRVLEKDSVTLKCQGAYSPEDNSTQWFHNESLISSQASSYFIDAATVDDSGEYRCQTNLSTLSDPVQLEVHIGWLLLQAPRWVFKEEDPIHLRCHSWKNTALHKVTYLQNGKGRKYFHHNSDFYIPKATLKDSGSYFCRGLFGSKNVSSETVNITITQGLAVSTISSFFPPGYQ

The first test concerns the target T1, FcγRIIb extracellular domain with …. Kind of test: SPR, binding relative to GpH7-A5/GpH7-B3/GpL16-k0 = 100. On the procedure: (§1) The heterodimerized antibodies He Abs in which one of the H chains was introduced with an alteration were assayed for their binding activities to each activating FcγR and inhibitory FcγR according to the method described in Example 4. […] The activating FcγRs in FIGS. 26, 27, 28, and 29 are FcγRIa, FcγRIIa (R), FcγRIIa (H), and FcγRIIIa, respectively.
(§2) Analysis of interaction between objective antibody and the FcγR was carried out using Biacore T100 (GE Healthcare). HBS-EP+ (GE Healthcare) was used as the running buffer, and the measurement temperature was set to 25° C. Chips produced by immobilizing the antigen peptide by the amine coupling method to a Series S Sencor Chip CM5 (GE Healthcare), or alternatively, chips produced by allowing preliminarily biotinylated antigen peptides to interact with and immobilize onto a Series S Sensor Chip SA (certified) (GE Healthcare) were used. Antibodies of interest were captured onto an antigen peptide-immobilized chip, and allowed to interact to each FcγR diluted with running buffer. To regenerate and repeatedly use the chip, the antibodies captured on the chip were washed off by reacting 10 mM glycine-HCl, pH 1.5.
On the technique in general: In SPR one partner is held on a chip, and binding of the other changes the refractive index at the surface.
As for B1, the He/Con_2b was 99.8 % of control.
On to B2, for which the He/Con_2b was 52.4 % of control.
As to B3, the He/Con_2b is 80.5 % of control.
Still for that read-out and setting: with B4 the figure was 70.5 % of control.
For B5, the He/Con_2b was 67.1 % of control.
Turning to B6, the He/Con_2b is 92.8 % of control.
On the same count and under the same terms, next, B7: 95 % of control.

Another test addresses T3, FcγRIIIa extracellular domain with C-terminal His tag (human, UniProt P08637 17-208).
T3 construct: extracellular domain; also called 3a; FcgRIIIa
Described as above. As for the experimental part:
as §1, §2
For B1, the He/Con_3a was 118 % of control.
B2: the He/Con_3a was 101 % of control.
For B3, the He/Con_3a is 142 % of control.
As for B4, the He/Con_3a was 124 % of control.
With B5, the He/Con_3a was 103 % of control.
For B6, the He/Con_3a is 147 % of control.
As to B7, the He/Con_3a was 125 % of control.

The target of the next test is T2, FcγRIIb. As to the kind of experiment: SPR (Biacore), relative binding.
As to B8, the He/Con_2b is 105 % of GpH7-A5/GpH7-B3/GpL16-k0.
The same measure, in the same setting: with B9 the figure was 219 % of GpH7-A5/GpH7-B3/GpL16-k0; with B10, 149 % of GpH7-A5/GpH7-B3/GpL16-k0; with B11, 110 % of GpH7-A5/GpH7-B3/GpL16-k0.
On the same count and under the same terms, with B12 the figure was 143 % of GpH7-A5/GpH7-B3/GpL16-k0.
The same measure, in the same setting: next, B13: 235 % of GpH7-A5/GpH7-B3/GpL16-k0; B14: 197 % of GpH7-A5/GpH7-B3/GpL16-k0.
As to B15, the He/Con_2b is 114 % of GpH7-A5/GpH7-B3/GpL16-k0.
As to B16, the He/Con_2b is 172 % of GpH7-A5/GpH7-B3/GpL16-k0.
Regarding B17, the He/Con_2b was 116 % of GpH7-A5/GpH7-B3/GpL16-k0.
B18: the He/Con_2b was 217 % of GpH7-A5/GpH7-B3/GpL16-k0.
With B19, the He/Con_2b is 124 % of GpH7-A5/GpH7-B3/GpL16-k0.

A further test deals with T4, FcγRIIIa (human, UniProt P08637 17-208).
T4 construct: extracellular domain; also called FcgRIIIa; 3a
T4 sequence (P08637 17-208): as above
As to the kind of experiment: SPR (Biacore), relative binding.
As for B8, the He/Con_3a was 81.1 % of GpH7-A5/GpH7-B3/GpL16-k0.
For B9, the He/Con_3a is 79.3 % of GpH7-A5/GpH7-B3/GpL16-k0.
For the molecule B10, the He/Con_3a was 71.7 % of GpH7-A5/GpH7-B3/GpL16-k0.
Regarding B11, the He/Con_3a was 77.3 % of GpH7-A5/GpH7-B3/GpL16-k0.
With B12, the He/Con_3a is 20.7 % of GpH7-A5/GpH7-B3/GpL16-k0.
The same measure, in the same setting: next, B13: 37.4 % of GpH7-A5/GpH7-B3/GpL16-k0; B14: 33.3 % of GpH7-A5/GpH7-B3/GpL16-k0.
On the same count and under the same terms, with B15 the figure was 81.9 % of GpH7-A5/GpH7-B3/GpL16-k0; with B16, 53.4 % of GpH7-A5/GpH7-B3/GpL16-k0.
For the molecule B17, the He/Con_3a was 75.1 % of GpH7-A5/GpH7-B3/GpL16-k0.
On to B18, for which the He/Con_3a was 31.4 % of GpH7-A5/GpH7-B3/GpL16-k0.
In the case of B19, the He/Con_3a was 48 % of GpH7-A5/GpH7-B3/GpL16-k0.

For the origin of these results see patent US20150344570A1 (published 2015).
